We go through 6 molecules from paper PMC5484534 (Molecular cell, 2017).

Data set [1] relates to BMAL1 TAD. The experiment in a line: Cyclophilin acceleration of TAD switch isomerization by 15N-1H ZZ-exchange NMR. Format: biochemical, mouse. The note with it: room temperature (22.68°C), 400 μM 15N BMAL1 TAD + 100 μM cyclophilin, 20 mM HEPES pH 7.0 (pH 7.5 for His6GST-PPIL3), 100 mM NaCl, 2 mM TCEP.
For data set [2] the following is noted: ref Davis et al., 2010; cited from earlier work.

B1: PPIL2: human nuclear cyclophilin (protein, UniProt Q13356 1-520, looked up)
RING-type E3 …: MGKRQHQKDKMYITCAEYTHFYGGKKPDLPQTNFRRLPFDHCSLSLQPFVYPVCTPDGIVFDLLNIVPWLKKYGTNPSNGEKLDGRSLIKLNFSKNSEGKYHCPVLFTVFTNNTHIVAVRTTGNVYAYEAVEQLNIKAKNFRDLLTDEPFSRQDIITLQDPTNLDKFNVSNFYHVKNNMKIIDPDEEKAKQDPSYYLKNTNAETRETLQELYKEFKGDEILAATMKAPEKKKVDKLNAAHYSTGKVSASFTSTAMVPETTHEAAAIDEDVLRYQFVKKKGYVRLHTNKGDLNLELHCDLTPKTCENFIRLCKKHYYDGTIFHRSIRNFVIQGGDPTGTGTGGESYWGKPFKDEFRPNLSHTGRGILSMANSGPNSNRSQFFITFRSCAYLDKKHTIFGRVVGGFDVLTAMENVESDPKTDRPKEEIRIDATTVFVDPYEEADAQIAQERKTQLKVAPETKVKSSQPQAGSQGPQTFRQGVGKYINPAATKRAAEEEPSTSATVPMSKKKPSRGFGDFSSW
B1: in data set [1], the “activity on TAD switch isomerization, in words” value (“activity … in words” for short) is “either not active on the TAD or had activity that was below the detection limit”. The “activity on generic peptide substrates” value in data set [2] is listed as “lack activity on generic peptide substrates”.

B2: CWC27: human nuclear cyclophilin (protein, UniProt Q6UX04 2-472, looked up)
Spliceosome-associated …: SNIYIQEPPTNGKVLLKTTAGDIDIELWSKEAPKACRNFIQLCLEAYYDNTIFHRVVPGFIVQGGDPTGTGSGGESIYGAPFKDEFHSRLRFNRRGLVAMANAGSHDNGSQFFFTLGRADELNNKHTIFGKVTGDTVYNMLRLSEVDIDDDERPHNPHKIKSCEVLFNPFDDIIPREIKRLKKEKPEEEVKKLKPKGTKNFSLLSFGEEAEEEEEEVNRVSQSMKGKSKSSHDLLKDDPHLSSVPVVESEKGDAPDLVDDGEDESAEHDEYIDGDEKNLMRERIAKKLKKDTSANVKSAGEGEVEKKSVSRSEELRKEARQLKRELLAAKQKKVENAAKQAEKRSEEEEAPPDGAVAEYRREKQKYEALRKQQSKKGTSREDQTLALLNQFKSKLTQAIAETPENDIPETEVEDDEGWMSHVLQFEDKSRKVKDASMQDSDTFEIYDPRNPVNKRRREESKKLMREKKERR
Turning to B2, the “activity … in words” value in data set [1] is “either not active on the TAD or had activity that was below the detection limit”. Further, the “activity on generic peptide substrates” value in data set [2] is given as “lack activity on generic peptide substrates”.

B3: PPWD: human nuclear cyclophilin (protein, UniProt Q96BP3 2-646, looked up)
Peptidylprolyl isomerase …: AAESGSDFQQRRRRRRDPEEPEKTELSERELAVAVAVSQENDEENEERWVGPLPVEATLAKKRKVLEFERVYLDNLPSASMYERSYMHRDVITHVVCTKTDFIITASHDGHVKFWKKIEEGIEFVKHFRSHLGVIESIAVSSEGALFCSVGDDKAMKVFDVVNFDMINMLKLGYFPGQCEWIYCPGDAISSVAASEKSTGKIFIYDGRGDNQPLHIFDKLHTSPLTQIRLNPVYKAVVSSDKSGMIEYWTGPPHEYKFPKNVNWEYKTDTDLYEFAKCKAYPTSVCFSPDGKKIATIGSDRKVRIFRFVTGKLMRVFDESLSMFTELQQMRQQLPDMEFGRRMAVERELEKVDAVRLINIVFDETGHFVLYGTMLGIKVINVETNRCVRILGKQENIRVMQLALFQGIAKKHRAATTIEMKASENPVLQNIQADPTIVCTSFKKNRFYMFTKREPEDTKSADSDRDVFNEKPSKEEVMAATQAEGPKRVSDSAIIHTSMGDIHTKLFPVECPKTVENFCVHSRNGYYNGHTFHRIIKGFMIQTGDPTGTGMGGESIWGGEFEDEFHSTLRHDRPYTLSMANAGSNTNGSQFFITVVPTPWLDNKHTVFGRVTKGMEVVQRISNVKVNPKTDKPYEDVSIINITVK
As for B3, the “activity … in words” value in data set [1] is “either not active on the TAD or had activity that was below the detection limit”.

B4: PPIG: human nuclear cyclophilin (protein, UniProt Q13427 1-754, looked up)
Peptidyl-prolyl cis-trans …: MGIKVQRPRCFFDIAINNQPAGRVVFELFSDVCPKTCENFRCLCTGEKGTGKSTQKPLHYKSCLFHRVVKDFMVQGGDFSEGNGRGGESIYGGFFEDESFAVKHNKEFLLSMANRGKDTNGSQFFITTKPTPHLDGHHVVFGQVISGQEVVREIENQKTDAASKPFAEVRILSCGELIPKSKVKKEEKKRHKSSSSSSSSSSDSDSSSDSQSSSDSSDSESATEEKSKKRKKKHRKNSRKHKKEKKKRKKSKKSASSESEAENLEAQPQSTVRPEEIPPIPENRFLMRKSPPKADEKERKNRERERERECNPPNSQPASYQRRLLVTRSGRKIKGRGPRRYRTPSRSRSRDRFRRSETPPHWRQEMQRAQRMRVSSGERWIKGDKSELNEIKENQRSPVRVKERKITDHRNVSESPNRKNEKEKKVKDHKSNSKERDIRRNSEKDDKYKNKVKKRAKSKSRSKSKEKSKSKERDSKHNRNEEKRMRSRSKGRDHENVKEKEKQSDSKGKDQERSRSKEKSKQLESKSNEHDHSKSKEKDRRAQSRSRECDITKGKHSYNSRTRERSRSRDRSRRVRSRTHDRDRSRSKEYHRYREQEYRRRGRSRSRERRTPPGRSRSKDRRRRRRDSRSSEREESQSRNKDKYRNQESKSSHRKENSESEKRMYSKSRDHNSSNNSREKKADRDQSPFSKIKQSSQDNELKSSMLKNKEDEKIRSSVEKENQKSKGQENDHVHEKNKKFDHESSPGTDEDKSG
In the case of B4, in data set [1], the “activity … in words” value is reported as “significantly increased the rate of isomerization in BMAL1”.

B5: PPIL3: human nuclear cyclophilin (protein, UniProt Q9H2H8 2-161, looked up)
Peptidyl-prolyl cis-trans …: SVTLHTDVGDIKIEVFCERTPKTCENFLALCASNYYNGCIFHRNIKGFMVQTGDPTGTGRGGNSIWGKKFEDEYSEYLKHNVRGVVSMANNGPNTNGSQFFITYGKQPHLDMKYTVFGKVIDGLETLDELEKLPVNEKTYRPLNDVHIKDITIHANPFAQ
modifications: His6-GST tag
Turning to B5, the “activity … in words” value in data set [1] is reported as “significantly increased the rate of isomerization in BMAL1”.

B6: PPIL1: human nuclear cyclophilin (protein, UniProt Q9Y3C6 1-166, looked up)
Peptidyl-prolyl cis-trans …: MAAIPPDSWQPPNVYLETSMGIIVLELYWKHAPKTCKNFAELARRGYYNGTKFHRIIKDFMIQGGDPTGTGRGGASIYGKQFEDELHPDLKFTGAGILAMANAGPDTNGSQFFVTLAPTQWLDGKHTIFGRVCQGIGMVNRVGMVETNSQDRPVDDVKIIKAYPSG
With B6, the “activity … in words” value in data set [1] is “significantly increased the rate of isomerization in BMAL1”.
